Data on one molecule can be found in patent publication US6863885B2, “Method of decreasing radiation or radio-mimetic chemotherapy for hematopoietic pluripotent cell engraftment” (The United States of America as represented by the …, priority 1995, dated 2005).

For this assay, the system named is engraftment of donor Sca-1+ HPCs (donor Ly5.2 cells among recipient PBMCs). Kind of assay: Cytokine pre-conditioning effect on short term engraftment of donor Sca-1+ HPCs after 200 cGy radiation. The class given is in vivo, C57BL/6-Ly-5.1-Pep3b mice. As to conditions: mice. Here is the method: FIG. 1 is a bar graph showing the cytokine hematopoietic growth factor pretreatment conditioning effect on engraftment of HPCs following 200 cGy radiation in mice, one month after transplantation. Recipient C57BL/6J-Ly-5.1-Pep^3b mice received b.i.d. sc injections of PBS (□) 0.1% BSA, 4 μg rhGCSF (□) in 0.1% BSA, or 4 μg rhGCSF plus 1.0 μg rmSCF(▪) in 0.1% BSA (R&D Systems, Minneapolis, Minn.) for four days. On the fifth day, mice received a single sc injection followed one hour later by a 200 cGy radiation dose. Four hours after irradiation, all mice received 0.5×10^6 Sca-1+BM cells via tail vein injection. Mice were bled 1 month after BMT and PB was analyzed for engraftment. […] The data represent three experiments in series with 2 mice per condition in each experiment. All animals survived this procedure.
The data which forms the basis of the present invention concerns the enhanced in vivo transfer of purified SCA-1+bone marrow derived HPCs using congenic C57BL/6 mice, which differ only at the Ly5 locus. The origin of a cell is detectable by immunoreactivity with either anti-Ly5.1 or anti-Ly5.2 antibodies by FACS of PBMCs. […] Using this system, the effects of pre-transplantation cytokine conditioning on short term engraftment, defined as the percentage of total PBMCs in the recipient that were donor Ly5.2 cells, measured one month after transplantation, have been determined. […]

B1: rhGCSF: recombinant human granulocyte colony stimulating factor (R&D Systems), 4 μg in 0.1% BSA (protein, UniProt P09919 31-207, looked up)
Granulocyte …: TPLGPASSLPQSFLLKCLEQVRKIQGDGAALQEKLVSECATYKLCHPEELVLLGHSLGIPWAPLSSCPSQALQLAGCLSQLHSGLFLYQGLLQALEGISPELGPTLDTLQLDVADFATTIWQQMEELGMAPALQPTQGAMPAFASAFQRRAGGVLVASHLQSFLEVSYRVLRHLAQP
As to B1, the “engraftment (percentage of total PBMCs in the recipient that were donor Ly5.2 cells)” value (b.i.d. sc for four days plus final injection on day 5, 0.5×10^6 Sca-1+ cells iv, measured one month after transplantation) was 18.9%. For the same molecule, the “fold increase in engraftment compared with control” value (one month after transplantation, versus vehicle control (0.1% BSA), p<0.01) is recorded as “at least a three fold increase”.
